To fix the notation:
B1: HWTX-XI (protein)
chain: IDTCRLPSDRGRCKASFERWYFNGRTCAKFIYGGCGGNGNKFPTQEACMKRCAKA
B2: trypsin (protein)
chain: SSGTSYPDVLKCLKAPILSDSSCKSAYPGQITSNMFCAGYLEGGKDSCQGDSGGPVVCSGKLQGIVSWGSGCAQKNKPGVYTKVCNYVSWIKQTIASN

The experiment “trypsin” addresses B2. The experiment can be described thus: ITC. On the technique in general: ITC needs no label: the signal is the heat of the interaction.
The target of the next experiment is BPTI (Bos taurus, UniProt P00974). Kind of experiment: ITC.

In the experiment with trypsin, B1 yielded a Kd of 0.23 nM.
Molecule B2 yielded a dissociation constant Kd in the experiment with BPTI of 6.57 nM.

A word on the Kd: it is the concentration at which binding is half-saturated.

Values taken from publication PMC2561067 (2008).
